Assay results taken from patent US10100129B2, “Antibodies against CD73 and uses thereof” (BRISTOL-MYERS SQUIBB COMPANY, priority 2014, dated 2018).
Positions count from the first letter of the chain named. Names and notes keep the numbering of the source.

Experiments:
CD73 on Calu6 cells = target: T1, CD73 on Calu6 cells (Homo sapiens, UniProt P21589); experiment: Dual cell line HTRF cAMP assay (Calu-6 and HEK293/A2AR cells); format: cell-based
T1 construct: Calu6 (CD73 endogenous expressors; human pulmonary adenocarcinoma cell line); endogenous in cells; host or cells: Calu6, NCI-H292, SK-MEL-24, SNU-C1, NCI-H1437, H2228, HCC15, H2030 and further human tumour lines
T1 sequence (P21589 27-549): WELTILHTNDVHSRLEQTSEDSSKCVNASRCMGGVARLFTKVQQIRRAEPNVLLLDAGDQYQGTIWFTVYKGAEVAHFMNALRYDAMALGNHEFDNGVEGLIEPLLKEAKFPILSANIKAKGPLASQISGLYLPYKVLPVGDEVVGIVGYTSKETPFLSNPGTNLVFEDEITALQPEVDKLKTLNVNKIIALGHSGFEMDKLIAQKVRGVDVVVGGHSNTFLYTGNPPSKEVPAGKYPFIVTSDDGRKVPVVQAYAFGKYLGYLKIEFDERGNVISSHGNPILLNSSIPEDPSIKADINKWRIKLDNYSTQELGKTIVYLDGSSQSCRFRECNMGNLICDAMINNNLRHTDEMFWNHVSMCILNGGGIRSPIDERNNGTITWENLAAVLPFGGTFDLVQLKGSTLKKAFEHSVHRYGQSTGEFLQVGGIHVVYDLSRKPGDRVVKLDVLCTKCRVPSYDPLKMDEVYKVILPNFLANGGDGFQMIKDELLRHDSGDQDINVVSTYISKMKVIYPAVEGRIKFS
Protocol: Inhibition of CD73 Enzymatic Activity in a Dual Cell Line cAMP Assay Homogenous Time Resolved Fluorescence (HTRF) cAMP Assay
CD73 antibodies were serial diluted with PBS buffer containing 0.2% BSA, and plated 5 μl/well in 384 well white bottom proxiplate (PerkinElmer, Waltham, Mass.). Calu-6 cells were harvested and resuspend in PBS containing 0.2% BSA, then 5 μl of cells (300 cells/well) were added to the plate. The cells were incubated with antibodies for 10 minutes at 37° C. […] The cells were further incubated with AMP for 30 minutes at 37° C. During this time, HEK293/A2AR cells were harvested and diluted to 0.4 million/ml in PBS containing 0.2% BSA. […] HRTF assays were performed using the homogenous time-resolved fluorescence (HTRF) HiRange cAMP detection kit (Cisbio, Bedford, Mass.) by adding 10 μl/well cAMP-conjugated d2 and 10 μl/well europium cryptate conjugated anti-cAMP antibody in lysis buffer according to the manufacturer's instructions. Plates were incubated at room temperature for 60 minutes and Fluorescence Resonance Energy Transfer (FRET) signals (665 and 615 nM) were read using an EnVision plate reader (PerkinElmer, Waltham, Mass.). The FRET signal was calculated as the ratio of signal from the 665 nm (acceptor) and 615 nm (donor) channels and multiplied by 10.000. IC50 and Ymax were measured. […]

human FcγRs = experiment: SPR binding profile to human FcγRs (panel); conditions: read-out: binding affinity to all other FcγRs
Protocol: Binding of the constructs to human FcγRs was measured via SPR. hCD64 and hCD32a-H131 binding data for IgG1.1 and IgG2 molecules were consistent with expected values for the different Fcs. IgG1.1f is the most inert Fc.
(§1) The binding of antibodies to Fc gamma receptors (FcγRs or FcgRs) was studied using biosensor technologies including Biacore surface plasmon resonance (SPR) and Fortebio Biolayer Interferometry (BLI). SPR studies were performed on a Biacore T100 instrument (GE Healthcare) at 25° C. The Fab fragment from a murine anti-6×His antibody was immobilized on a CM5 sensor chip using EDC/NHS to a density of ˜3000 RU. Various his-tagged FcgRs (7 ug/ml) were captured via the C-terminal his-tag using a contact time of 30 s at 10 ul/min, and the binding of 1.0 μM antibody was evaluated in a running buffer of 10 mM NaPO4, 130 mM NaCl, 0.05% p20 (PBS-T) pH 7.1. FcgRs used for these experiments included CD64 (FcgRI), CD32a-H131 (FcgRIIa-H131), CD32a-R131 (FcgRIIa-R131), CD32b (FcgRIIb), CD16a-V158 (FcgRIIIa-V158), CD16b-NA1 (FcgRIIIb-NA1), and CD16B-NA2 (FcgRIIIb-NA2). BLI experiments were performed on a Fortebio Octet RED instrument (Pall, Fortebio) at 25° C. in 10 mM NaPO4, 130 mM NaCl, 0.05% p20 (PBS-T) pH 7.1. Antibodies were captured out of undiluted expression supernatants on protein A coated sensors, followed by the binding of 1 μM hCD32a-H131, hCD32a-R131, hCD32b, hCD16a-V158, or 0.1 μM hCD64 analytes.
This engineering strategy was further explored by producing other antibodies formatted with IgG2.3G1-AY, IgG2.3G1-AY-S267E (IgG2.3G1-AY-V27), as well as IgG2-B-form variants (IgG2.5G1-AY and IgG2.5G1-AY-V27), and other hybrid antibodies containing different combinations of IgG1 and IgG2 constant domains, and testing the binding of these antibodies to anti-his Fab captured his-tagged FcgRs using Biacore SPR technology.

cyno FcγRs = experiment: SPR binding to cyno FcγRs; design: species or system cynomolgus; conditions: read-out: binding affinity to cyno FcγRs
CD73 on NCI-H292 cells = target: T2, CD73 on NCI-H292 cells (Homo sapiens, UniProt P21589); experiment: Flow cytometry based cross-blocking on NCI-H292 cells; format: binding; conditions: FITC-labeled 11F11, NCI-H292 cells
T2 construct: endogenous in cells; host or cells: NCI-H292
T2 sequence (P21589 27-549): T1 sequence (P21589 27-549)
Protocol: The antibodies were also subjected to flow cytometry based cross-blocking. The experiment was conducted as follows using one set of labeled fluorescently labeled antibody and a second set of unlabeled antibody: 100000 NCI-H292 cells were seeded per well. The plate was spun down and the cells were resuspended in 100 uL 2% FBS in PBS per well. The cells were blocked on ice for 20 min. Unlabeled antibody, as indicated, in 2% FBS in PBS was added to each well. […] 6 wells of cells were incubated without antibody, and were resuspended in 100 uL 2% FBS in PBS only (for controls). The cells were then incubated on ice for 30 min. The cells were washed twice with 2% FBS in PBS and the samples were resuspended in 140 uL 2% FBS in PBS, and analyzed on a FacsCalibur flow cytometer (Becton Dickinson).

[1] = SEC-MALS oligomeric state of CD73 mAbs; format: physicochemical
Protocol: The oligomeric state of CD73 mAbs were examined by size-exclusion chromatography coupled to an in-line multi-angle light scattering detector (SEC-MALS). Isocratic separations were performed on a Shodex PROTEIN KW-803 column connected to an Prominence Shimadzu UFLC in buffer containing 200 mM K2HPO4, 150 mM NaCl, pH 6.8, containing 0.02% Na azide (0.1 μm filtered) running at 0.5 mL/min. Samples were injected onto the column using a SIL-20AC Prominence Shimadzu autosampler, and data were obtained from three online detectors connected in series: a Prominence SPD-20AD diode array UV/vis spectrophotometer followed by a Wyatt miniDAWN™ TREOS Multi-Angle Light Scattering Detector then a Wyatt Optilab T-rEX Refractive Index Detector. Data (as shown in Table 15 below) were collected and analyzed using Astra (Wyatt) and Labsolutions (Shimadzu) software.

CD73 = target: T3, CD73 (Homo sapiens, UniProt P21589); experiment: CD73 internalization at 1, 4 or 21 hours by CD73.4 with heavy chain constant region variants (FIG. 31); format: cell-based; design: endogenous in cells; conditions: CD73.4 variable regions with the named constant region
T3 sequence (P21589 27-549): T1 sequence (P21589 27-549)
Protocol: The bars for each antibody are shown in the order of 21 hours (on the left), 4 hours (middle) and 1 hour (right).
Anti-CD73 antibodies (CD73.4) with the heavy chain constant regions shown in Table 31 were prepared and tested as described above in antibody mediated CD73 internalization assays.

[2] = test system: hCD32a-H131, hCD32a-R131, hCD32b, hCD16a-V158, hCD64; experiment: Fortebio Octet BLI binding of protein A-captured antibodies to FcgR analytes; design: species or system human; conditions: expression supernatants
Protocol: as §1
The next set of constructs was used to engineer effector function into the otherwise effector function negative IgG2 isotype. […]

Nc1ncnc2c1ncn2[C@@H]1O[C@H](COP(=O)(O)CP(=O)(O)O)[C@@H](O)[C@H]1O [APCP]
IC50 (CD73 on Calu6 cells; cAMP assay): 1.29 nM
Ymax (CD73 on Calu6 cells; percentage of inhibition relative to 100 nM 11F11 set to 100%): 97

IgG2-C219S-G1.1f: effectorless IgG1/IgG2 hybrid constant region: CH1 and hinge from IgG2 (C219S), CH2 and CH3 of IgG1 (A330S/P331S); SEQ ID NO:169
Kd (human FcγRs): < 5000 nM
Kd (cyno FcγRs): > 5000 nM

B1: 7A11: human anti-CD73 monoclonal antibody, IgG1za; VH SEQ ID NO: 88, VL SEQ ID NO: 92 (antibody, V domains shown)
VH: EVQLVESGGGLVQTGRSLRLSCAASGFTFDDYAMHWVRQAPGKGLEWVSDISWNSDIIGYADSVKGRFTISRDNAKNSLYLQMNSLRAEDTALYYCAKDIYGSGSSFFDYWGQGILVTVSS
VL: DIQMTQSPSSLSASVGDRVTITCRASQYISSWLAWYQQKPEKAPKSLIYAASSLQSGVPSRFSGSGSGTDFTLTISSLQPEDFATYYCQQYHSYPPTFGQGTRLEIK
modifications: Synthetic: 7A11 VH; Synthetic: 7A11 VK1
competition with 11F11 (cross-blocking) (CD73 on NCI-H292 cells): competes with 11F11
SEC % HMW [1]: 0.5%
SEC % LMW [1]: 0.5%
SEC % Monomer [1]: 98.5%

B2: IgG2.3/4: CD73.4 with IgG2 constant region with C219S/C220S (protein)
chain: ASTKGPSVFPLAPCSRSTSESTAALGCLVKDYFPEPVTVSWNSGALTSGVHTFPAVLQSSGLYSLSSVVTVPSSNFGTQTYTCNVDHKPSNTKVDKTVERKSSVECPPCPAPPVAGPSVFLFPPKPKDTLMISRTPEVTCVVVDVSHEDPEVQFNWYVDGVEVHNAKTKPREEQFNSTFRVVSVLTVVHQDWLNGKEYKCKVSNKGLPAPIEKTISKTKGQPREPQVYTLPPSREEMTKNQVSLTCLVKGFYPSDIAVEWESNGQPENNYKTTPPMLDSDGSFFLYSKLTVDKSRWQQGNVFSCSVMHEALHNHYTQKSLSLSPGK
modifications: Synthetic: IgG2.3/4
notes: CD73.4 with IgG2 constant region with C219S/C220S
antibody mediated CD73 internalization (in words) (CD73): much reduced internalization compared to IgG2.3 or IgG2.4 alone

B3: IgG2.3: antibody with IgG2 constant region with C219S (protein)
constant: B2 chain with S103C
modifications: left off: another chain or arm of the molecule
notes: antibody with IgG2 constant region with C219S
FcgR binding profile by BLI (in words) [2]: appreciable binding to only CD32a-H131
